Positions count from the first letter of the chain named.
Experiments:
[1] = biological target: T1, antibody-half molecule A1 with PF1H / PF1L-k0 (PF1H-DA303v2/PF1L-k0); assay: SPR (Biacore T200), about 50 RU of half molecule A captured via biotinylated antigen peptide, half molecule B as analyte at 2.5 mg/mL, 25 C
Protocol: (§1) The interaction between the obtained antibody-half molecules was analyzed using Biacore (registered trademark) T200. Biotin CAPture Kit, Series S (GE Healthcare) was used for the measurement, and HBS-EP+10X (GE Healthcare) diluted 1/10th was used as a running buffer. The measurement temperature was 25° C. For the sensor chip, Series S Sensor Chip CAP (GE Healthcare) onto which previously-biotinylated antigen peptides were allowed to interact and thereby immobilized was used. These chips were allowed to capture approximately 50 RU of the antibody-half molecule A of interest and then interact with the antibody-half molecule B of interest diluted with the running buffer at 2.5 mg/mL for 180 seconds at a flow rate of 30 μL/min, and measurement was carried out. The molar binding ratio was calculated based on the following Formula 2. The antibody-half molecule A captured on the chip was washed as described in the instructions attached to the kit, and the chip was regenerated and reused.
(§2) At this time, for the antibody-half molecules to be captured, PF1H (SEQ ID NO: 22), which is the H chain variable region portion of the anti-human IL6 receptor antibody described in WO 2009/041621, was used as the H chain variable region portion, PF1L (SEQ ID NO: 23), which is the L chain variable region portion of the anti-human IL6 receptor antibody described in WO 2009/041621, was used as the L chain variable region portion, and k0 was used as the L chain constant region portion. In addition, for the antibody-half molecules used as analytes, IC17H (SEQ ID NO: 24), which is the anti-KLH antibody described in WO 2015/174439, was used as the H chain variable region, IC17L (SEQ ID NO: 25), which is the anti-KLH antibody described in WO 2015/174439, was used as the L chain variable region, and k0 was used as the L chain constant region.

[2] = biological target: T1, antibody-half molecule A1 with PF1H / …; assay: SPR (Biacore T200), about 50 RU of half molecule A captured via biotinylated antigen peptide, half molecule B as analyte at 2.5 mg/mL, 25 C (Example 10)
Protocol: as §1
(§3) At this time, for the antibody-half molecule to be captured, PF1H (SEQ ID NO: 22), which is the H chain variable region portion of the anti-human IL6 receptor antibody described in WO 2009/041621, was used as the H chain variable region portion, PF1L (SEQ ID NO: 23), which is the L chain variable region portion of the anti-human IL6 receptor antibody described in WO 2009/041621, was used as the L chain variable region portion, and k0 was used as the L chain constant region portion. In addition, for the antibody-half molecules used as analytes, IC17H (SEQ ID NO: 24), which is the anti-KLH antibody described in WO 2015/174439, was used as the H chain variable region, IC17L (SEQ ID NO: 25), which is the anti-KLH antibody described in WO 2015/174439, was used as the L chain variable region, and k0 was used as L chain constant region.

[3] = biological target: antibody-half molecule A6 with PF1H / PF1L-k0 (PF1H-DA303v2.n.n/PF1L-k0); assay: as above
Protocol: as §1, §3

[4] = biological target: antibody-half molecule A4 with PF1H / PF1L-k0 (PF1H-DA424v2/PF1L-k0); assay: SPR (Biacore T200), about 50 RU of half molecule A captured via biotinylated antigen peptide, half molecule B as analyte at 2.5 mg/mL, 25 C
Protocol: as §1, §2

[5] = biological target: antibody-half molecule A7 with PF1H / PF1L-k0 (PF1H-DA303v2.n.HATF.B/PF1L-k0); assay: SPR (Biacore T200), about 50 RU of half molecule A captured via biotinylated antigen peptide, half molecule B as analyte at 2.5 mg/mL, 25 C (Example 10)
Protocol: as §1, §3

[6] = biological target: antibody-half molecule A5 with PF1H / PF1L-k0 (PF1H-DA430v2/PF1L-k0); assay: SPR (Biacore T200), about 50 RU of half molecule A captured via biotinylated antigen peptide, half molecule B as analyte at 2.5 mg/mL, 25 C
Protocol: as §1, §2

B1: antibody-half molecule B1 with IC17H / IC17L-k0 (IC17H-DB220v2/IC17L-k0) (antibody, human IgG1, kappa)
heavy: QVQLQQSGPQLVRPGASVKISCKASGYSFTSYWMHWVNQRPGQGLEWIGMIDPSYSETRLNQKFKDKATLTVDKSSSTAYMQLSSPTSEDSAVYYCALYGNYFDYWGQGTTLTVSSASTKGPSVFPLAPSSKSTSGGTAALGCLVKDYFPEPVTVSWNSGALTSGVHTFPAVLQSSGLYSLSSVVTVPSSSLGTQTYICNVNHKPSNTKVDKKVEPKSCDKTHTSPPSPAPELLGGPSVFLFPPKPKDTLMISRTPEVTCVVVDVSHEEPEVKFNWYVDGVEVHNAKTKPREEQYNSTYRVVSVLTVLHQDWLNGKEYKCKVSNDALPMPIEETISKAKGQPREPQVYTLPPSRDELTKNQVSLTCLVKGFYPSDIAVEWESNGQPENNYKTTPPYLDSDGSFFLYSDLTVDKSRWQQGNVFSCSVMHEALHNHYTQESLSLSP
light: DIQMTQSSSSFSVSLGDRVTITCKASEDIYNRLAWYQQKPGNAPRLLISGATSLETGVPSRFSGSGSGKDYTLSITSLQTEDVATYYCQQYWSTPYTFGGGTKLEVKRTVAAPSVFIFPPSDEQLKSGTASVVCLLNNFYPREAKVQWKVDNALQSGNSQESVTEQDSKDSTYSLSSTLTLSKADYEKHKVYACEVTHQGLSSPVTKSFNRGEC
molar binding ratio [1]: 0.38 | molar binding ratio [2]: 0.54

B2: antibody-half molecule B6 with IC17H / IC17L-k0 (IC17H-DB220v2.n.n/IC17L-k0) (antibody, human IgG1, kappa)
heavy: B1 heavy with E438K
light: B1 light
molar binding ratio [3]: 0.42

B3: antibody-half molecule B4 with IC17H / IC17L-k0 (IC17H-DB424v2/IC17L-k0) (antibody, human IgG1, kappa)
heavy: B1 heavy with E356N
light: B1 light
molar binding ratio [4]: 0.25

B4: antibody-half molecule B7 with IC17H / IC17L-k0 (IC17H-DB220v2.n.HATF.A/IC17L-k0) (antibody, human IgG1, kappa)
heavy: B1 heavy with S363H, F404A, E438K
light: B1 light
molar binding ratio [5]: 0.32

B5: antibody-half molecule B5 with IC17H / IC17L-k0 (IC17H-DB430v2/IC17L-k0) (antibody, human IgG1, kappa)
heavy: B1 heavy with E356L
light: B1 light
molar binding ratio [6]: 0.27

— US20190382484A1 (Chugai, published 2019)
